Test results as given in the supplement of paper PMC10567573.
± gives the standard deviation.

Test: protein stability index of a GFP-peptide fusion (GPS, HEK-293T) (PSI 1-6); higher = more stable
Details: c terminus: a fixed tail appended
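Further: 24-mer peptide tiles fused after GFP, lentivirally expressed, FACS-sorted into six equal bins by GFP/DsRed ratio, decoded by Illumina sequencing, PSI is the read-weighted mean bin number.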

Row | Sequence | protein stability index (treatment: DMSO) | protein stability index (treatment: MLN4924 1 uM, 8 h)
1 | MTETDAFYKREMFDPAEKYKMDHR [CASP6] | 4.05 ± 0.25 | 4.1 ± 0.29
2 | VQDYSYFFFLRMDENYNLLPHGVN [CCDC3] | 2.38 ± 0.48 | 2.48 ± 0.37
3 | FYLPREELWIYNMETGRWKKINTE [KLHDC2] | 2.63 ± 0.22 | 2.32 ± 0.49
4 | DKEGPSPKVEYVWRNIILMSLLHL [SCD] | 3.11 ± 0.69 | 3.12 ± 0.4
5 | DLDAWSILIREAQNQPIDKARKTY [CSTF3] | 2.8 ± 0.34 | 3.04 ± 0.66
6 | KRLKHKDDSVMKATQQARKRNFIS [C22orf31] | 4.11 ± 0.27 | 4.19 ± 0.23
7 | YGPVEVISHWHPNITINIVDDHTP [CLPTM1] | 2.41 ± 0.23 | 2.54 ± 0.17
8 | VFQTEQKNLFRLEMDMVVFRPEMK [N4BP2L1] | 2.02 ± 0.26 | 2.16 ± 0.092
9 | LVLKIMSGTFAPISDRYSPELRQL [NEK8] | 2.9 ± 0.6 | 2.69 ± 0.5
10 | VYLHFLSVVTEDGPEPKDKGSLPQ [ZNF232] | 2.27 ± 0.18 | 2.35 ± 0.33
11 | ELKPEDKDPRDPEESKEPKEEKQR [GNAS] | 5.22 ± 0.48 | 5.7 ± 0.3
12 | PRHQGHRVQPVKDTAHDFRAKCRN [TRIM35] | 4.57 ± 0.15 | 4.65 ± 0.24
13 | HPLHPRHRKAVHLRTRGRTRGWVQ [C6orf223] | 3.15 ± 0.23 | 3.05 ± 0.49
14 | LFSIAPLIYGSMEMFPAAQQLYRH [JAGN1] | 2.55 ± 0.41 | 2.6 ± 0.57
15 | HVINQGMAMYWGTSRWSSMEIMEA [KCNAB2] | 2.67 ± 0.53 | 2.42 ± 0.21
16 | SQGNFEGNFESLDLAEFAKKQPWW [FUNDC2] | 3.63 ± 0.27 | 3.63 ± 0.46
17 | ILAQQPDRLRDEELAELEDALRNL [TRADD] | 5.29 ± 0.22 | 4.94 ± 0.17
18 | GAHTLVNHGYAEPAAGRELPPDMT [KCNA3] | 4.87 ± 0.13 | 4.73 ± 0.17
19 | QGEPLGYRQDDPSYRSFHSGGYGQ [CTNNB1] | 3.76 ± 0.48 | 3.96 ± 0.24
20 | DTSMDGTEPPQNPVTPLGLQNEVP [SERTAD3] | 5.4 ± 0.19 | 5.38 ± 0.34
21 | LEHGSIYIPSSYVDSHHEYPAMTF [ESR2] | 2.19 ± 0.18 | 2.06 ± 0.56
22 | IGIEAKNLASYDVCSILLGTSTLL [MCOLN1] | 2.84 ± 0.7 | 2.92 ± 0.66
23 | SNITSETGFRTISSLEEIVEKQGD [TMEM192] | 5.44 ± 0.19 | 5.35 ± 0.15

Row | Sequence | protein stability index (treatment: DMSO) | protein stability index (treatment: MLN4924 1 uM, 8 h)
24 | HKQDGKAGLFSQEQYERNKSSSSS [TMEM40] | 5.3 ± 0.35 | 5.31 ± 0.15
25 | LNRDEEIIKQLQKGVQQKRPSEAQ [DENND6A] | 4.94 ± 0.097 | 4.83 ± 0.31
26 | NNCAFLESSAKSKINVNEIFYDLV [RAP1B] | 2.44 ± 0.45 | 2.07 ± 0.34
27 | PISLQATPATPATLSASSSAGGSR [TFE3] | 4.51 ± 0.18 | 4.87 ± 0.11
28 | KPQDSSQPSDRLMTEKQQEEAEWE [CEP70] | 5.59 ± 0.4 | 5.45 ± 0.46
29 | RDPFECNMCGYHSQDRYEFSSHIT [IKZF1] | 2.33 ± 0.4 | 2.33 ± 0.59
30 | KEEQRDYVFYLAVGNYRLKEYEKA [FIS1] | 2.39 ± 0.43 | 2.23 ± 0.36
31 | KDKENKFLCVLMSDWFNFHGHMCI [CLK3] | 3.06 ± 0.31 | 3.08 ± 0.53
32 | CRVPNSGKDEIEAAVKAAREAFPS [ALDH8A1] | 4.65 ± 0.27 | 4.54 ± 0.36
33 | ALHPERAMDNHSDSEEELAAFCPQ [RETREG3] | 5.42 ± 0.12 | 5.37 ± 0.24
34 | IEEGFNPVQASQLEEEFDSDSGLS [NFE2L1] | 5.37 ± 0.25 | 5.44 ± 0.16
35 | CPVWDIFDSDWYTSRNLIGGADII [RHOBTB3] | 3.26 ± 0.5 | 3.55 ± 0.26
36 | NGMNAVMMHGRSYSLASGAGGGGS [RAB40C] | 3.19 ± 0.26 | 3.34 ± 0.34
37 | QDAVDQVKVIMDALDERAKVLHED [TRIM29] | 4.93 ± 0.1 | 4.93 ± 0.34
38 | QQCQYRWLRVLNPDLVKGPWTKEE [MYBL2] | 2.83 ± 0.38 | 2.9 ± 0.29
39 | VGDIVSFMHSFEEKYGRAHPVFYQ [FAF2] | 2.04 ± 0.34 | 2.17 ± 0.22
40 | TVPEILVHNIVIFMRTSVKISYIG [TMEM106C] | 3.01 ± 0.38 | 3.11 ± 0.29
41 | RLGRCMRRLRDMVERPHSGLPGKV [KCNG1] | 2.4 ± 0.17 | 2.69 ± 0.24
42 | KFNGITEKEYKTYKENFLKRFQLT [USP39] | 3.59 ± 0.12 | 3.86 ± 0.15
43 | YLSCLEELMKCQIIYPRQQLLTLR [TRIP13] | 2.68 ± 0.68 | 2.69 ± 0.36
44 | QCDKRFRWSSDLNKHLTTHQGIKP [ZNF75A] | 3.02 ± 0.12 | 2.97 ± 0.24
45 | LITFDNKAHSGRIPISLETQAHIQ [MCOLN1] | 2.91 ± 0.26 | 3.04 ± 0.23
46 | DKEVRAASTEADKRLSRFDIEMSM [NLN] | 4.39 ± 0.32 | 4.74 ± 0.32

Row | Sequence | protein stability index (treatment: DMSO) | protein stability index (treatment: MLN4924 1 uM, 8 h)
47 | GLRLCRPKAKAKAKAKAKDQTKAQ [RPL29] | 3.91 ± 0.23 | 4.16 ± 0.34
48 | QPLRTPRDEAIYECVASNNVGEIS [PTPRD] | 4.88 ± 0.23 | 5.13 ± 0.12
49 | LEQRGTHAVVGVATALAPLQTDHY [SPSB2] | 3.6 ± 0.31 | 3.65 ± 0.15
50 | SEDWTMEERFRPLTFHGLILRSQL [CLCN6] | 2.32 ± 0.13 | 2.23 ± 0.18
51 | KEKELSIELANIRDEVAFHTAKCE [MTUS2] | 4.46 ± 0.43 | 4.37 ± 0.46
52 | KNATRETTSTLKAWLNEHRKNPYP [IRX6] | 3.14 ± 0.23 | 3.37 ± 0.33
53 | LAGSESLPVETLGPASRMDPESER [PBXIP1] | 5.2 ± 0.18 | 5.21 ± 0.21
54 | ATVWSSNVGRVHRVAKKLQSGLVW [ALDH8A1] | 2.81 ± 0.87 | 2.24 ± 0.96
55 | VASFKFDAGEVSYLPRDFSTYRPL [MYORG] | 2.28 ± 0.37 | 2.54 ± 0.17
56 | LQNEAQKRESFLKYKCLLQQLYYT [IQUB] | 2.16 ± 0.43 | 2.24 ± 0.21
57 | IKEQEVCKLQEQLEATVKKLEESK [SASS6] | 5.1 ± 0.27 | 5.05 ± 0.25
58 | IDTVYSTAFAPKMIVDLLSEKKTI [OR4A15] | 2.37 ± 0.19 | 2.52 ± 0.26
59 | HQRKHAGEKPFECRQRLIFEQTPA [ZNF8] | 3.65 ± 0.2 | 3.64 ± 0.16
60 | MKGFSFKEDTLLLIAEVMGEDIPE [C8orf76] | 2.09 ± 0.11 | 2.21 ± 0.24
61 | TSITLTASRVSKVNDKRRKKSGEK [KMT2E] | 4.04 ± 0.28 | 4.47 ± 0.17
62 | ASAIKKEELVARSETHAAGHSQEK [CHGB] | 5.4 ± 0.43 | 5.37 ± 0.31
63 | WNDSCGEDMEASDYELEDETRPAK [WEE1] | 5.41 ± 0.32 | 5.45 ± 0.17
64 | DFDDEKILIQHQKAKHFKCHICHK [ZNF207] | 2.85 ± 0.31 | 3.31 ± 0.19
65 | LILESQNWRYATGGWETVFRPVSE [FUT8] | 2.42 ± 0.22 | 2.29 ± 0.11
66 | KLDIQCDLKTLSDDIKESLESEGK [ATE1] | 5.19 ± 0.23 | 5.01 ± 0.1
67 | IVNDELYLNGASVLPHKSIGESVP [GMPPB] | 3.67 ± 0.24 | 3.4 ± 0.29
68 | KNGKKWEILNFNQYYEACRKAAKS [ACSBG2] | 2.49 ± 0.21 | 2.62 ± 0.57
69 | PVYSVPQLLSAMGSLCSLWFGASV [SCNN1D] | 3.06 ± 0.056 | 3.37 ± 0.59

Row | Sequence | protein stability index (treatment: DMSO) | protein stability index (treatment: MLN4924 1 uM, 8 h)
70 | SEIRCDLERQNQEYQVLLDVKARL [KRT36] | 3.38 ± 0.19 | 3.34 ± 0.2
71 | DRDKRDFVSAGAAAGVAAAFGAPI [CLCN6] | 4.12 ± 0.096 | 4.24 ± 0.19
72 | NLLDVYSSQGVATPAITVSNSCPA [TFE3] | 3.4 ± 0.15 | 3.34 ± 0.22
73 | CFKNWDGSPVSSWILLAESNSADD [OAS1] | 3.04 ± 0.24 | 3.38 ± 0.4
74 | GTVVALLNVHDLDSEQNGQVTCSI [PCDHGA10] | 2.23 ± 0.34 | 2.58 ± 0.24
75 | FFWHLTLPERRGTCADRDNLTRRF [CASP6] | 2.61 ± 0.36 | 2.09 ± 0.18
76 | QEQIEAVLLNSLQQYRQDQRDGSK [CCND2] | 4.51 ± 0.086 | 4.46 ± 0.13
77 | EMERTQAQLRDAVQSLQLSPRTRG [RASAL3] | 4.96 ± 0.36 | 4.77 ± 0.49
78 | SVDGLTLSPDPEERPGAEGAPLLP [ACBD3] | 5.46 ± 0.19 | 5.54 ± 0.18
79 | CSNSQEHGAHKHHPIEEAAEEHRE [TRIM43] | 5.51 ± 0.34 | 5.37 ± 0.27
80 | WFLSKTEELNKEVASNSELVQSSR [KRT16] | 3.86 ± 0.39 | 3.96 ± 0.17
81 | RSGHTQTDYINASFMDGYKQKNAY [PTPN9] | 3.52 ± 0.2 | 3.61 ± 0.18
82 | QKEVAGFVLNRLQYAIISEAWRLV [CRYL1] | 3.43 ± 0.53 | 3.37 ± 0.27
83 | KGYNIWTGGPDACLRCWDQRTIMK [TLE6] | 2.32 ± 0.18 | 2.45 ± 0.14
84 | RESGAEPQEAVLQQLHQLPRGRLD [LRRC45] | 5.06 ± 0.3 | 5.16 ± 0.25
85 | ENQSSQAELKEAVEEPSSKDVMEK [CHGA] | 5.6 ± 0.12 | 5.72 ± 0.19
86 | YMHVGSCQHLSSSAEELRKARSNS [KCNA3] | 3.95 ± 0.11 | 4.37 ± 0.22
87 | GNAHYQRADFVLAANSYDLAIKAI [FKBP8] | 2.5 ± 0.079 | 2.43 ± 0.33
88 | KPYTCSVCGKSFSRTTCLFLHLRT [ZNF8] | 2.54 ± 0.39 | 2.89 ± 0.7
89 | AEAKRDAGIREAKAKQEKVSAQYL [FLOT1] | 4.88 ± 0.32 | 5.094 ± 0.024
